Square brackets hold non-standard residues; d marks the D form. Phe(3,4-Cl2) = N[C@@H](Cc1ccc(Cl)c(Cl)c1)C(=O)O; Phe(4-Br) = N[C@@H](Cc1ccc(Br)cc1)C(=O)O; Phe(4-Cl) = N[C@@H](Cc1ccc(Cl)cc1)C(=O)O; Phe(4-Me) = Cc1ccc(C[C@H](N)C(=O)O)cc1; hCha = N[C@@H](CCC1CCCCC1)C(=O)O; Cha = N[C@@H](CC1CCCCC1)C(=O)O

Test [1] deals with E. coli β clamp (β subunit of DNA polymerase III, dnaN gene product), N-tagged (E. coli) (UniProt P0A988). Kind of test: ITC. For orientation: In ITC the heat of successive injections is recorded.
E. coli β clamp (β subunit of DNA polymerase III, dnaN gene product), N-tagged (E. coli), sequence (P0A988 whole entry): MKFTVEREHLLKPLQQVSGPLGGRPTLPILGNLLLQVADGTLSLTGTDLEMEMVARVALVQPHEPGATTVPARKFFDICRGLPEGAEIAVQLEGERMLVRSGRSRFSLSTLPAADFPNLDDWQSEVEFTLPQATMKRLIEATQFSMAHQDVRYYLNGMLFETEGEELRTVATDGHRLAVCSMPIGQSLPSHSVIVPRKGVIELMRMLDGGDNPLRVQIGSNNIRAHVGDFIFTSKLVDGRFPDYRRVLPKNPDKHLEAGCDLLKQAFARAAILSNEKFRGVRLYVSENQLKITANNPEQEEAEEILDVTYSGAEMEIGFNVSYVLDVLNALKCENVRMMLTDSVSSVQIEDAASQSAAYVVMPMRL
Test [2] has the same target. As to the kind of experiment: ITC, peptide 400 µM into β ring 20 or 30 µM, 25° C.
The target is the same in test [3]. Kind of test: SPR competition on immobilised P1.
Test [4] has the same target.
For test [5] the target is unchanged. As to the kind of experiment: ITC / SPR.
For test [6] the target is unchanged. As to the kind of experiment: SPR competition on immobilised P1; ΔG = -RT ln Ki.
The target of test [7] is E. coli β clamp (β subunit of DNA polymerase III, dnaN gene product) (E. coli) (UniProt P0A988). As to the kind of experiment: SPR competition, β ring on immobilised P1.
E. coli β clamp (β subunit of DNA polymerase III, dnaN gene product) (E. coli), sequence (P0A988 whole entry): as above
Test [8] has the same target. Kind of test: ITC, peptide 400 µM into β ring 30 µM, 25 °C.
The target is the same in test [9]. Kind of test: ITC, peptide 400 µM into β ring 30 µM, 25 °C, second experiment.
The target of test [10] is E. coli β clamp (β subunit of DNA polymerase III, dnaN gene product), N-tagged (E. coli) (UniProt P0A988). As to the kind of experiment: SPR competition (Biacore 3000): β ring 0.25 µM mixed with the challenger, injected on immobilised P1. (In general: In SPR one partner is held on a chip, and binding of the other changes the refractive index at the surface.)
In test [11] the target is T1, E. coli β clamp (β subunit of DNA polymerase III, dnaN gene product) (E. coli, UniProt P0A988 1-366).
T1 construct: Expressed in BL21 E. coli from pET15b with an N-terminal tag; also called β ring; β protein; not shown: N-terminal tag from plasmid pET15b ('N-tagged protein', purified on Ni-NTA)
Kind of test: from ITC data; compared residues pMeF/pClF.

Test [12] deals with T1, E. coli β clamp (β subunit of DNA …). As to the kind of experiment: SPR competition, β ring on immobilised P1.
The target is the same in test [13]. As to the kind of experiment: from ITC data; compared residues F/pClF.
Test [14] shares this target. Kind of test: ITC, peptide 400 µM into β ring 20 µM, 25 °C, second experiment.
Test [15] has the same target. Kind of test: from ITC data; compared residues pBrF/pClF.
The target is the same in test [16]. Kind of test: ITC, peptide 400 µM into β ring 20 µM, 25 °C.
Test [17] has the same target. Kind of test: from ITC data; compared residues F/pMeF.
Test [18] shares this target. Kind of test: ITC, peptide 400 µM into β ring 30 µM, 25 °C.
For test [19] the target is unchanged. Kind of test: from ITC data; compared residues L/Cha.
Test [20] shares this target. As to the kind of experiment: SPR competition, concentration of peptide that challenges 50% of the binding of β ring to P1.
Test [21] shares this target. As to the kind of experiment: ITC, peptide 400 µM into β ring 30 µM, 25 °C, second experiment.
Test [22] has as its target T2, E. coli β clamp (β subunit of DNA polymerase III, dnaN gene product) (E. coli, UniProt P0A988 1-366).
T2 construct: Homodimeric ring; N-tagged protein expressed in BL21 E. coli and purified on Ni-NTA and MonoQ; also called β ring; β protein; not shown: N-terminal tag from the pET15b plasmid
As to the kind of experiment: SPR competition: peptide with β ring injected on immobilized P1.

Test [23] addresses T2, E. coli β clamp (β subunit of DNA …). Kind of test: SPR competition; ΔG = -RT ln Ki.
Test [24] has the same target. As to the kind of experiment: SPR competition: peptide with β ring injected on immobilized P1. This is another data set of the same source.
The target of test [25] is T1, E. coli β clamp (β subunit of DNA …). As to the kind of experiment: from ITC data; compared residues pMeF/pBrF.
The target is the same in test [26]. As to the kind of experiment: from ITC data; compared residues F/pBrF.
Test [27] has the same target. Kind of test: from ITC data; compared residues pBrF/diClF.
Test [28] has the same target. As to the kind of experiment: from ITC data; compared residues pMeF/diClF.
The target is the same in test [29]. Kind of test: from ITC data; compared residues pClF/diClF.
Test [30] has the same target. As to the kind of experiment: from ITC data; compared residues F/diClF.

As to P14 (Ac-Q Cha DL diClF) (peptide), the Kd (as a rule, the constant that tells how readily two partners part at equilibrium) in test [1] is 60 nM. Further, the Kd in [2] worked out at 65 nM. For the same molecule, in test [3], the IC50 (usually the concentration that inhibits the measured activity by half) came out at 70 nM, the fold increase against P1 was determined as 115 fold, the fold increase against P6 was found to be 15 fold and the fold increase against the full PolIV enzyme was determined as 4 fold. The molecule also showed an IC50, Pol IV based biochemical assay (inhibition of β dependent Pol IV elongation) in [4] of 125 nM. In [5], this molecule showed a fold increase in binding against P6 of 10 to 15 fold.
In turn, “P3 (RQLVLF) (peptide; other documents disagree on this pair)” registered a ΔG in test [6] of -7.04 kcal/mol. Moreover, in [7], the IC50 worked out at 8620 nM. Besides, in [8], the Kd came to 2820 nM, the ΔG was -7.5 kcal/mol, the ΔH was -5.77 kcal/mol and the ΔS came out at 6.05 cal/mol/deg. Also, in test [9], the Kd came to 2320 nM, the ΔG is -7.6 kcal/mol, the ΔH is -5.7 kcal/mol and the ΔS was found to be 6.6 cal/mol/deg. In test [10], the IC50 came out at 8620 nM.

B1: P12 (Ac-Gln-Cha-Asp-Leu-pClPhe-OH) (peptide)
peptide: Ac-Q[Cha]DL[Phe(4-Cl)]-OH
SMILES: CC(=O)N[C@@H](CCC(N)=O)C(=O)N[C@@H](CC1CCCCC1)C(=O)N[C@@H](CC(=O)O)C(=O)N[C@@H](CC(C)C)C(=O)N[C@@H](Cc1ccc(Cl)cc1)C(=O)O
notes: also called AcQChaDLpClF; Ac-Q Cha DL pClF
Regarding B1, in test [11], the “ΔΔG (ΔGj - ΔGi) of P12 against P11” value was -0.85 kcal/mol. Also, the IC50 in [12] stood at 160 nM. In addition, the “ΔΔG (ΔGj - ΔGi) of P12 against P7” value in test [13] was -0.6 kcal/mol. In [14], binding was characterised by a dissociation constant (Kd) of 122 nM, the ΔG was -9.4 kcal/mol, the ΔH is -14.3 kcal/mol and the ΔS is -16.3 cal/mol/deg. Moreover, the “ΔΔG (ΔGj - ΔGi) of P12 against P13” value in test [15] was -0.32 kcal/mol. Further, in test [16], binding was characterised by a dissociation constant (Kd) of 89 nM, the ΔG is -9.6 kcal/mol, the ΔH was -15 kcal/mol and the ΔS is -18.1 cal/mol/deg.

B2: P11 (Ac-Gln-Cha-Asp-Leu-pMePhe-OH) (peptide)
peptide: Ac-Q[Cha]DL[Phe(4-Me)]-OH
SMILES: CC(=O)N[C@@H](CCC(N)=O)C(=O)N[C@@H](CC1CCCCC1)C(=O)N[C@@H](CC(=O)O)C(=O)N[C@@H](CC(C)C)C(=O)N[C@@H](Cc1ccc(C)cc1)C(=O)O
notes: also called AcQChaDLpMeF; Ac-Q Cha DL pMeF
The molecule B2 yielded an IC50 in test [12] of 260 nM. In [14], this molecule gave a Kd of 362 nM, a ΔG of -8.6 kcal/mol, a ΔH of -14.4 kcal/mol and a ΔS of -19 cal/mol/deg. In test [16], this molecule gave a Kd of 401 nM, a ΔG of -8.6 kcal/mol, a ΔH of -14.8 kcal/mol and a ΔS of -20.4 cal/mol/deg. The “ΔΔG (ΔGj - ΔGi) of P11 against P7” value in [17] was 0.25 kcal/mol.

B3: P7 (Ac-Gln-Cha-Asp-Leu-Phe-OH) (peptide)
peptide: Ac-Q[Cha]DLF-OH
SMILES: CC(=O)N[C@@H](CCC(N)=O)C(=O)N[C@@H](CC1CCCCC1)C(=O)N[C@@H](CC(=O)O)C(=O)N[C@@H](CC(C)C)C(=O)N[C@@H](Cc1ccccc1)C(=O)O
notes: also called AcQChaDLF; Ac Q Cha D L F
B3 registered an IC50 in test [12] of 170 nM. In [18], binding was put at a Kd of 246 nM, the ΔG is -8.9 kcal/mol, the ΔH is -21.3 kcal/mol and the ΔS is -41.2 cal/mol/deg. Also, the “ΔΔG (ΔGj - ΔGi) of P7 against P6” value in [19] was -0.66 kcal/mol. For the same molecule, the affinity in test [20] corresponds to a Ki of 170 nM. In [21], this molecule yielded a Kd of 222 nM, a ΔG of -8.9 kcal/mol, a ΔH of -20.5 kcal/mol and a ΔS of -38.5 cal/mol/deg.

B4: P8, Ac-Gln-hCha-Asp-Leu-Phe-OH (peptide)
peptide: Ac-Q[hCha]DLF-OH
SMILES: CC(=O)N[C@@H](CCC(N)=O)C(=O)N[C@@H](CCC1CCCCC1)C(=O)N[C@@H](CC(=O)O)C(=O)N[C@@H](CC(C)C)C(=O)N[C@@H](Cc1ccccc1)C(=O)O
notes: X stands for the non-natural residue; also called Ac Q hCha DLF
On to B4, for which the IC50 in test [22] and in test [24] was 82800 nM throughout. The molecule also yielded a ΔG in test [23] of -5.74 kcal/mol.

B5: P13 (Ac-Gln-Cha-Asp-Leu-pBrPhe-OH) (peptide)
peptide: Ac-Q[Cha]DL[Phe(4-Br)]-OH
SMILES: CC(=O)N[C@@H](CCC(N)=O)C(=O)N[C@@H](CC1CCCCC1)C(=O)N[C@@H](CC(=O)O)C(=O)N[C@@H](CC(C)C)C(=O)N[C@@H](Cc1ccc(Br)cc1)C(=O)O
notes: also called AcQChaDLpBrF; Ac-Q Cha DL pBrF
B5 displayed an IC50 in [12] of 96 nM. In test [14], the affinity, expressed as Kd, was 167 nM; the ΔG is -9.1 kcal/mol; the ΔH is -15.2 kcal/mol; the ΔS was -20.2 cal/mol/deg. In addition, in test [25], the “ΔΔG (ΔGj - ΔGi) of P13 against P11” value is -0.53 kcal/mol. Besides, in test [16], the Kd stood at 136 nM, the ΔG is -9.3 kcal/mol, the ΔH is -18.1 kcal/mol and the ΔS is -29.3 cal/mol/deg. The “ΔΔG (ΔGj - ΔGi) of P13 against P7” value in [26] is -0.28 kcal/mol.

B6: P14 (Ac-Gln-Cha-Asp-Leu-(3,4-di-Cl)Phe-OH) (peptide)
peptide: Ac-Q[Cha]DL[Phe(3,4-Cl2)]-OH
SMILES: CC(=O)N[C@@H](CCC(N)=O)C(=O)N[C@@H](CC1CCCCC1)C(=O)N[C@@H](CC(=O)O)C(=O)N[C@@H](CC(C)C)C(=O)N[C@@H](Cc1ccc(Cl)c(Cl)c1)C(=O)O
notes: also called AcQChaDLdiClF; Ac Q Cha D L diClF
Regarding B6, in [12], the IC50 was found to be 77 nM. Also, in [27], the “ΔΔG (ΔGj - ΔGi) of P14 against P13” value was -0.52 kcal/mol. For the same molecule, in test [14], the Kd was determined as 55 nM, the ΔG was -9.8 kcal/mol, the ΔH was -18.1 kcal/mol and the ΔS is -27.6 cal/mol/deg. For the same molecule, the “ΔΔG (ΔGj - ΔGi) of P14 against P11” value in test [28] is -1.05 kcal/mol. Further, the “ΔΔG (ΔGj - ΔGi) of P14 against P12” value in test [29] was -0.2 kcal/mol. Also, in test [16], binding was put at a Kd of 73 nM, the ΔG is -9.6 kcal/mol, the ΔH is -18.9 kcal/mol and the ΔS was -30.8 cal/mol/deg. In addition, affinity in test [20] was put at a Ki of 85 nM. Moreover, the “ΔΔG (ΔGj - ΔGi) of P14 against P7” value in test [30] is -0.8 kcal/mol.

These data come from patent US20140287989A1 (CENTRE NATIONAL DE LA RECHERCHE SCIENTIFIQUE, published 2014).
